Source: the RNAGym collection of RNA variant scans (doi:10.1093/molbev/msab373)

B1: Azoarcus group I ribozyme (parent)
chain: GUGCCUUGCGCCGGGAAACCACGCAAGGGAUGGUGUCAAAUUCGGCGAAACCUAAGCGCCCGCCCGGGCGUAUGGCAACGCCGAGCCAAGCUUCGGCGCCUGCGCCGAUGAAGGUGUAGAGACUAGACGGCACCCACCUAAGGCAAACGCUAUGGUGAAGGCAUAGUCCAGGGAGUGGCGAAAGUCACACAAACCGG

Variants of: B1
Assay: reverse-splicing fitness (ratio to wild type); higher = more active; in vitro selection; Mg2+ level not given
Summary of the method: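 An in vitro group I ribozyme library with randomized positions was T7-transcribed and gel-purified. In triplicate, 10 pmol RNA in EPPS pH 7.5 was reacted with 50 pmoles of a 30-nt RNA substrate for 1 h at 37 °C across several added MgCl2 levels (1–48 mM), then stopped with EDTA. Products were reverse transcribed from a substrate-complementary primer, PCR-amplified and sequenced (HiSeq 4000). Fitness is a variant's read proportion after selection over that before, normalised to wild type.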

| Variant | reverse-splicing fitness |
| --- | --- |
| GUGCCUUGCGCCGGGAAACCACGCAAGGGAUGGUGUCAAAUUCGGCGAAACCUAAGCGCCCGCCCGGGCGUAUGGCAACGCUGAGCCAAGCUUCGGCGCCUGCGCCGAUGUAGGUGUAGAGACUAGACGGCACCCACCUAAGGCAAACGAUAUGGUGAAGGCAUAGUCAAGGGAGCGGCGAAAGUCACACAAACCGG | 0.0168 |
| GUGCCUUGCGCCGGGAAACCACGCAAGGGAUGGUGUCAAAUUCGGCGAAACCUAAGCGCCCGCCCGGGCGUAUGGCAACGCUGAGCCAAGCUUCGGCGCCUGCGCCGAUGUAGGUGUAGAGACUAGACGGCACCCACCUAAGGCAAACGAUAUGGUGAAGGCAUAGUCAAGGGAGGGGCGAAAGUCACACAAACCGG | 0.00696 |
| GUGCCUUGCGCCGGGAAACCACGCAAGGGAUGGUGUCAAAUUCGGCGAAACCUAAGCGCCCGCCCGGGCGUAUGGCAACGCUGAGCCAAGCUUCGGCGCCUGCGCCGAUGUAGGUGUAGAGACUAGACGGCACCCACCUAAGGCAAACGGUAUGGUGAAGGCAUAGUCGAGGGAGUGGCGAAAGUCACACAAACCGG | 0.00698 |
| GUGCCUUGCGCCGGGAAACCACGCAAGGGAUGGUGUCAAAUUCGGCGAAACCUAAGCGCCCGCCCGGGCGUAUGGCAACGCUGAGCCAAGCUUCGGCGCCUGCGCCGAUGUAGGUGUAGAGACUAGACGGCACCCACCUAAGGCAAACGGUAUGGUGAAGGCAUAGUCAAGGGAGUGGCGAAAGUCACACAAACCGG | 0.00799 |
| GUGCCUUGCGCCGGGAAACCACGCAAGGGAUGGUGUCAAAUUCGGCGAAACCUAAGCGCCCGCCCGGGCGUAUGGCAACGCUGAGCCAAGCUUCGGCGCCUGCGCCGAUGUAGGUGUAGAGACUAGACGGCACCCACCUAAGGCAAACGGUAUGGUGAAGGCAUAGUCUAGGGAGUGGCGAAAGUCACACAAACCGG | 0.0095 |
| GUGCCUUGCGCCGGGAAACCACGCAAGGGAUGGUGUCAAAUUCGGCGAAACCUAAGCGCCCGCCCGGGCGUAUGGCAACGCUGAGCCAAGCUUCGGCGCCUGCGCCGAUGUAGGUGUAGAGACUAGACGGCACCCACCUAAGGCAAACGGUAUGGUGAAGGCAUAGUCGAGGGAGGGGCGAAAGUCACACAAACCGG | 0.00532 |
| GUGCCUUGCGCCGGGAAACCACGCAAGGGAUGGUGUCAAAUUCGGCGAAACCUAAGCGCCCGCCCGGGCGUAUGGCAACGCUGAGCCAAGCUUCGGCGCCUGCGCCGAUGUAGGUGUAGAGACUAGACGGCACCCACCUAAGGCAAACGGUAUGGUGAAGGCAUAGUCGAGGGAGAGGCGAAAGUCACACAAACCGG | 0.00711 |
| GUGCCUUGCGCCGGGAAACCACGCAAGGGAUGGUGUCAAAUUCGGCGAAACCUAAGCGCCCGCCCGGGCGUAUGGCAACGCUGAGCCAAGCUUCGGCGCCUGCGCCGAUGUAGGUGUAGAGACUAGACGGCACCCACCUAAGGCAAACGGUAUGGUGAAGGCAUAGUCGAGGGAGCGGCGAAAGUCACACAAACCGG | 0.00452 |
| GUGCCUUGCGCCGGGAAACCACGCAAGGGAUGGUGUCAAAUUCGGCGAAACCUAAGCGCCCGCCCGGGCGUAUGGCAACGCUGAGCCAAGCUUCGGCGCCUGCGCCGAUGUAGGUGUAGAGACUAGACGGCACCCACCUAAGGCAAACGGUAUGGUGAAGGCAUAGUCCAGGGAGGGGCGAAAGUCACACAAACCGG | 0.00369 |
| GUGCCUUGCGCCGGGAAACCACGCAAGGGAUGGUGUCAAAUUCGGCGAAACCUAAGCGCCCGCCCGGGCGUAUGGCAACGCUGAGCCAAGCUUCGGCGCCUGCGCCGAUGUAGGUGUAGAGACUAGACGGCACCCACCUAAGGCAAACGGUAUGGUGAAGGCAUAGUCCAGGGAGCGGCGAAAGUCACACAAACCGG | 0.0152 |
| GUGCCUUGCGCCGGGAAACCACGCAAGGGAUGGUGUCAAAUUCGGCGAAACCUAAGCGCCCGCCCGGGCGUAUGGCAACGCUGAGCCAAGCUUCGGCGCCUGCGCCGAUGUAGGUGUAGAGACUAGACGGCACCCACCUAAGGCAAACGGUAUGGUGAAGGCAUAGUCCAGGGAGAGGCGAAAGUCACACAAACCGG | 0.00833 |
| GUGCCUUGCGCCGGGAAACCACGCAAGGGAUGGUGUCAAAUUCGGCGAAACCUAAGCGCCCGCCCGGGCGUAUGGCAACGCUGAGCCAAGCUUCGGCGCCUGCGCCGAUGUAGGUGUAGAGACUAGACGGCACCCACCUAAGGCAAACGAUAUGGUGAAGGCAUAGUCUAGGGAGAGGCGAAAGUCACACAAACCGG | 0.0198 |
| GUGCCUUGCGCCGGGAAACCACGCAAGGGAUGGUGUCAAAUUCGGCGAAACCUAAGCGCCCGCCCGGGCGUAUGGCAACGCUGAGCCAAGCUUCGGCGCCUGCGCCGAUGUAGGUGUAGAGACUAGACGGCACCCACCUAAGGCAAACGAUAUGGUGAAGGCAUAGUCUAGGGAGCGGCGAAAGUCACACAAACCGG | 0.0152 |
| GUGCCUUGCGCCGGGAAACCACGCAAGGGAUGGUGUCAAAUUCGGCGAAACCUAAGCGCCCGCCCGGGCGUAUGGCAACGCUGAGCCAAGCUUCGGCGCCUGCGCCGAUGUAGGUGUAGAGACUAGACGGCACCCACCUAAGGCAAACGAUAUGGUGAAGGCAUAGUCUAGGGAGGGGCGAAAGUCACACAAACCGG | 0.0075 |
| GUGCCUUGCGCCGGGAAACCACGCAAGGGAUGGUGUCAAAUUCGGCGAAACCUAAGCGCCCGCCCGGGCGUAUGGCAACGCUGAGCCAAGCUUCGGCGCCUGCGCCGAUGUAGGUGUAGAGACUAGACGGCACCCACCUAAGGCAAACGAUAUGGUGAAGGCAUAGUCGAGGGAGUGGCGAAAGUCACACAAACCGG | 0.00941 |
| GUGCCUUGCGCCGGGAAACCACGCAAGGGAUGGUGUCAAAUUCGGCGAAACCUAAGCGCCCGCCCGGGCGUAUGGCAACGCUGAGCCAAGCUUCGGCGCCUGCGCCGAUGUAGGUGUAGAGACUAGACGGCACCCACCUAAGGCAAACGAUAUGGUGAAGGCAUAGUCUAGGGAGUGGCGAAAGUCACACAAACCGG | 0.0133 |
| GUGCCUUGCGCCGGGAAACCACGCAAGGGAUGGUGUCAAAUUCGGCGAAACCUAAGCGCCCGCCCGGGCGUAUGGCAACGCUGAGCCAAGCUUCGGCGCCUGCGCCGAUGUAGGUGUAGAGACUAGACGGCACCCACCUAAGGCAAACGGUAUGGUGAAGGCAUAGUCUAGGGAGAGGCGAAAGUCACACAAACCGG | 0.00687 |
| GUGCCUUGCGCCGGGAAACCACGCAAGGGAUGGUGUCAAAUUCGGCGAAACCUAAGCGCCCGCCCGGGCGUAUGGCAACGCUGAGCCAAGCUUCGGCGCCUGCGCCGAUGUAGGUGUAGAGACUAGACGGCACCCACCUAAGGCAAACGGUAUGGUGAAGGCAUAGUCUAGGGAGCGGCGAAAGUCACACAAACCGG | 0.0106 |
| GUGCCUUGCGCCGGGAAACCACGCAAGGGAUGGUGUCAAAUUCGGCGAAACCUAAGCGCCCGCCCGGGCGUAUGGCAACGCUGAGCCAAGCUUCGGCGCCUGCGCCGAUGUAGGUGUAGAGACUAGACGGCACCCACCUAAGGCAAACGGUAUGGUGAAGGCAUAGUCUAGGGAGGGGCGAAAGUCACACAAACCGG | 0.00604 |
| GUGCCUUGCGCCGGGAAACCACGCAAGGGAUGGUGUCAAAUUCGGCGAAACCUAAGCGCCCGCCCGGGCGUAUGGCAACGCUGAGCCAAGCUUCGGCGCCUGCGCCGAUGUAGGUGUAGAGACUAGACGGCACCCACCUAAGGCAAACGGUAUGGUGAAGGCAUAGUCAAGGGAGCGGCGAAAGUCACACAAACCGG | 0.00895 |
| GUGCCUUGCGCCGGGAAACCACGCAAGGGAUGGUGUCAAAUUCGGCGAAACCUAAGCGCCCGCCCGGGCGUAUGGCAACGCUGAGCCAAGCUUCGGCGCCUGCGCCGAUGUAGGUGUAGAGACUAGACGGCACCCACCUAAGGCAAACGGUAUGGUGAAGGCAUAGUCAAGGGAGGGGCGAAAGUCACACAAACCGG | 0.00774 |
| GUGCCUUGCGCCGGGAAACCACGCAAGGGAUGGUGUCAAAUUCGGCGAAACCUAAGCGCCCGCCCGGGCGUAUGGCAACGCUGAGCCAAGCUUCGGCGCCUGCGCCGAUGUAGGUGUAGAGACUAGACGGCACCCACCUAAGGCAAACGGUAUGGUGAAGGCAUAGUCAAGGGAGAGGCGAAAGUCACACAAACCGG | 0.00971 |
| GUGCCUUGCGCCGGGAAACCACGCAAGGGAUGGUGUCAAAUUCGGCGAAACCUAAGCGCCCGCCCGGGCGUAUGGCAACGCUGAGCCAAGCUUCGGCGCCUGCGCCGAUGUAGGUGUAGAGACUAGACGGCACCCACCUAAGGCAAACGAUAUGGUGAAGGCAUAGUCGAGGGAGGGGCGAAAGUCACACAAACCGG | 0.00717 |
| GUGCCUUGCGCCGGGAAACCACGCAAGGGAUGGUGUCAAAUUCGGCGAAACCUAAGCGCCCGCCCGGGCGUAUGGCAACGCUGAGCCAAGCUUCGGCGCCUGCGCCGAUGUAGGUGUAGAGACUAGACGGCACCCACCUAAGGCAAACGAUAUGGUGAAGGCAUAGUCGAGGGAGCGGCGAAAGUCACACAAACCGG | 0.0217 |
| GUGCCUUGCGCCGGGAAACCACGCAAGGGAUGGUGUCAAAUUCGGCGAAACCUAAGCGCCCGCCCGGGCGUAUGGCAACGCUGAGCCAAGCUUCGGCGCCUGCGCCGAUGUAGGUGUAGAGACUAGACGGCACCCACCUAAGGCAAACGAUAUGGUGAAGGCAUAGUCGAGGGAGAGGCGAAAGUCACACAAACCGG | 0.0193 |
| GUGCCUUGCGCCGGGAAACCACGCAAGGGAUGGUGUCAAAUUCGGCGAAACCUAAGCGCCCGCCCGGGCGUAUGGCAACGCUGAGCCAAGCUUCGGCGCCUGCGCCGAUGUAGGUGUAGAGACUAGACGGCACCCACCUAAGGCAAACGAUAUGGUGAAGGCAUAGUCCAGGGAGCGGCGAAAGUCACACAAACCGG | 0.0289 |
| GUGCCUUGCGCCGGGAAACCACGCAAGGGAUGGUGUCAAAUUCGGCGAAACCUAAGCGCCCGCCCGGGCGUAUGGCAACGCUGAGCCAAGCUUCGGCGCCUGCGCCGAUGUAGGUGUAGAGACUAGACGGCACCCACCUAAGGCAAACGAUAUGGUGAAGGCAUAGUCCAGGGAGGGGCGAAAGUCACACAAACCGG | 0.00896 |
| GUGCCUUGCGCCGGGAAACCACGCAAGGGAUGGUGUCAAAUUCGGCGAAACCUAAGCGCCCGCCCGGGCGUAUGGCAACGCUGAGCCAAGCUUCGGCGCCUGCGCCGAUGUAGGUGUAGAGACUAGACGGCACCCACCUAAGGCAAACGAUAUGGUGAAGGCAUAGUCCAGGGAGAGGCGAAAGUCACACAAACCGG | 0.0157 |
| GUGCCUUGCGCCGGGAAACCACGCAAGGGAUGGUGUCAAAUUCGGCGAAACCUAAGCGCCCGCCCGGGCGUAUGGCAACGCUGAGCCAAGCUUCGGCGCCUGCGCCGAUGUAGGUGUAGAGACUAGACGGCACCCACCUAAGGCAAACGGUAUGGUGAAGGCAUAGUCCAGGGAGUGGCGAAAGUCACACAAACCGG | 0.0213 |
| GUGCCUUGCGCCGGGAAACCACGCAAGGGAUGGUGUCAAAUUCGGCGAAACCUAAGCGCCCGCCCGGGCGUAUGGCAACGCUGAGCCAAGCUUCGGCGCCUGCGCCGAUGUAGGUGUAGAGACUAGACGGCACCCACCUAAGGCAAACGUUAUGGUGAAGGCAUAGUCCAGGGAGUGGCGAAAGUCACACAAACCGG | 0.157 |
